The values that follow come from paper PMC3764422, “A model of yeast glycolysis based on a consistent kinetic characterisation of all its enzymes” (Febs Letters, 2013).

In the experiment the target is T1, phosphofructokinase beta subunit Pfk2p (S. cerevisiae, UniProt P16862 1-959).
T1 sequence (looked up): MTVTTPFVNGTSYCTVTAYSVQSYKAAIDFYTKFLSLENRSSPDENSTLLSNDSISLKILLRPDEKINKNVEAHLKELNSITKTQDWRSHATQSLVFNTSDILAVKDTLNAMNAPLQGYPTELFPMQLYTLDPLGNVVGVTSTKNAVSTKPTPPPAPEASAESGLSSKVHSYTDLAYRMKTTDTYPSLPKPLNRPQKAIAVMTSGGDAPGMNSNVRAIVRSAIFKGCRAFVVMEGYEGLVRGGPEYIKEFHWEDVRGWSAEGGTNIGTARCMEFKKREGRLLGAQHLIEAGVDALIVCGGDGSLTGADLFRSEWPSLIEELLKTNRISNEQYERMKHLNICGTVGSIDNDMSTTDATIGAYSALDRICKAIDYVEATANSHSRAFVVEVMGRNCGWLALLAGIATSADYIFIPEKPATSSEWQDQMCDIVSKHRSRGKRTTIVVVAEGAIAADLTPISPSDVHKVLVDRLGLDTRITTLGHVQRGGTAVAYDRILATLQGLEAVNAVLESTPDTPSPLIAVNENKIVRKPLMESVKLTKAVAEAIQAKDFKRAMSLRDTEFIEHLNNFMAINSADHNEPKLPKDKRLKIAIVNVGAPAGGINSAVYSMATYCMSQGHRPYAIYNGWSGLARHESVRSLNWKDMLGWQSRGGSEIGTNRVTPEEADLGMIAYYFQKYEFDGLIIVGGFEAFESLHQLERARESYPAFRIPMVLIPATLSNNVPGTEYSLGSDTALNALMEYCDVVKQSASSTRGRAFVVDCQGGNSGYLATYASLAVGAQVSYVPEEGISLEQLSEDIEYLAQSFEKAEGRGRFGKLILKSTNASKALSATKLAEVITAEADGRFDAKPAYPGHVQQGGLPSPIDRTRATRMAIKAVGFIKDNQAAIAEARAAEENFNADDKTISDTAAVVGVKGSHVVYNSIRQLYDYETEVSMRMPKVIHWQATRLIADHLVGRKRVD
The experiment is described as follows: cell-based or functional assay.

B1: phosphofructokinase alpha subunit Pfk1p (enzyme, S. cerevisiae, UniProt P16861 1-987, looked up)
chain: MQSQDSCYGVAFRSIITNDEALFKKTIHFYHTLGFATVKDFNKFKHGENSLLSSGTSQDSLREVWLESFKLSEVDASGFRIPQQEATNKAQSQGALLKIRLVMSAPIDETFDTNETATITYFSTDLNKIVEKFPKQAEKLSDTLVFLKDPMGNNITFSGLANATDSAPTSKDAFLEATSEDEIISRASSDASDLLRQTLGSSQKKKKIAVMTSGGDSPGMNAAVRAVVRTGIHFGCDVFAVYEGYEGLLRGGKYLKKMAWEDVRGWLSEGGTLIGTARSMEFRKREGRRQAAGNLISQGIDALVVCGGDGSLTGADLFRHEWPSLVDELVAEGRFTKEEVAPYKNLSIVGLVGSIDNDMSGTDSTIGAYSALERICEMVDYIDATAKSHSRAFVVEVMGRHCGWLALMAGIATGADYIFIPERAVPHGKWQDELKEVCQRHRSKGRRNNTIIVAEGALDDQLNPVTANDVKDALIELGLDTKVTILGHVQRGGTAVAHDRWLATLQGVDAVKAVLEFTPETPSPLIGILENKIIRMPLVESVKLTKSVATAIENKDFDKAISLRDTEFIELYENFLSTTVKDDGSELLPVSDRLNIGIVHVGAPSAALNAATRAATLYCLSHGHKPYAIMNGFSGLIQTGEVKELSWIDVENWHNLGGSEIGTNRSVASEDLGTIAYYFQKNKLDGLIILGGFEGFRSLKQLRDGRTQHPIFNIPMCLIPATVSNNVPGTEYSLGVDTCLNALVNYTDDIKQSASATRRRVFVCEVQGGHSGYIASFTGLITGAVSVYTPEKKIDLASIREDITLLKENFRHDKGENRNGKLLVRNEQASSVYSTQLLADIISEASKGKFGVRTAIPGHVQQGGVPSSKDRVTASRFAVKCIKFIEQWNKKNEASPNTDAKVLRFKFDTHGEKVPTVEHEDDSAAVICVNGSHVSFKPIANLWENETNVELRKGFEVHWAEYNKIGDILSGRLKLRAEVAALAAENK
As to B1, the “kcat of phosphofructokinase, Pfk1p:Pfk2p co-expressed and co-purified (spectrophotometric coupled assay, 30 °C)” value was determined as 210 s⁻¹.
